Reference: the supplement of paper PMC9170038

Test system: MS2 coat protein
Experiment: apparent KD of MS2 coat protein; designed switch direction (-1 OFF switch, 1 ON switch): -1; higher = weaker reporter binding
In short: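 SNAP-549-labelled MS2 coat protein was titrated, doubling from 0.7 or 1.5 nM to 3 µM, over designed RNA switches transcribed on Illumina chips by stalled E. coli RNA polymerase. Runs were done without input, with 200 uM small-molecule ligand, or with an oligonucleotide input. Apparent KD is the per-design median over clusters of curve-fitted normalised fluorescence.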

[1] = Eterna round: R95, input ligand: microRNA oligo, concentration not stated
[2] = input ligand: microRNA oligo, concentration not stated
[3] = Eterna round: R95, input ligand: FMN 200 uM
[4] = Eterna round: R95, input ligand: none

| Sequence | apparent KD of MS2 coat protein (input ligand: FMN 200 uM) [nM] | apparent KD of MS2 coat protein (input ligand: none) [nM] | apparent KD of MS2 coat protein [1] [nM] | apparent KD of MS2 coat protein [2] [nM] | apparent KD of MS2 coat protein [3] [nM] | apparent KD of MS2 coat protein [4] [nM] |
| --- | --- | --- | --- | --- | --- | --- |
| AUAUAGAUAGUCAGGAUAUGCUAGUGAUAACAGUAGCAGAAGGGACAUGAGGAUCACCCAUGUGGAUAGCGCAC [Brourd's EX4 #5] (Eterna round: R97, puzzle: Brourd's mod of Exclusion 4) | 139 | 39.7 | – | – | – | – |
| GCCUCACAUGAGGAUCACCCAUGUCAGGAUAUCUAACGCGAGGUGCAGGCACUUCGUGAGAGAAGGGACGUCAA [Iszabius] (puzzle: Exclusion 1) | – | – | 19.4 | – | – | – |
| GGGCCUGGUGUAGGAUAUCGUGGGCGGUGUCGGCGAGAAGGACAUGAGGAUCACCCAUGUCCGGGCUCGGGUUCCCGGGCUUGG [second try -37.9 kcal and 14% A] (Eterna round: R96, puzzle: Exclusion NG 1) | 28.5 | 15.4 | – | 13 | – | – |
| CAGUACUGAGGAUAUACAUGAGGAUCACCCAUGUGUGUGAGAUUUGUGUGGUUGUUUUGUAGAAGGCGGUGCUG [JR_Ex3_Sub031] (Eterna round: R97, puzzle: Exclusion 3) | 19.1 | 91.2 | – | – | – | – |
| AGUUAUUCAGGAUAUGGUGUGUUAUACAUGAGGAUCACCCAUGUGGGUCAUGGUUAGGCCUCAGAAGGGAAUGUUA [salish99_ex5_r4_125] (Eterna round: R97, puzzle: Exclusion 5) | 796 | 1100 | – | – | – | – |
| GGGCCCGGUGUGAGGAUAUGCCCGGGUAAACCCGGGUAGAAGGCACAUGAGGAUCACCCAUGUAAGCCGGGCCC [-43, -40.9 kcal, A 23%, 5cbis-0] (Eterna round: R97, puzzle: Brourd's mod of Exclusion 4) | 12.8 | 17.7 | – | – | – | – |
| GGACCCAAAGGAUAUACUUGAGGAUCACCCAAGUAUGUCGCUUGGGCACGGUAAAGGAGUAGAAGGUUGGGAAA [Esri] (Eterna round: R97, puzzle: Exclusion 3) | 17.6 | 14.4 | – | – | – | – |
| AGUACUAACACGAAAGUGUUCGUACAAUAAGCUUGUGAAACAUGAGGAUCACCCAUGUCCUCAUAAGCUCGUCUUAU [salish99_TOv2_r3_037] (puzzle: Sensor v3, turn-off variant 2) | – | – | 810 | – | 16.6 | 15.6 |
| ACAACAUGAGGAUCACCCAUGUGUGUUGUCCCAUGUGUGUAUAAGGAUAUAUGAAGGAAGGAGGAAUAGAAGGUAUAGAAGGAG [Am I even doing this right] (Eterna round: R96, puzzle: Exclusion NG 3) | 84.1 | 1200 | – | 9.25 | – | – |
| GAUUAUGCGAGCUUUAGGGACAUGAGGAUCACCCAUGUUCGUCUUAUUGAUCUAGAUGCACUGACAUACCUAAAUCU [JMF 77] (puzzle: Sensor v3, turn-off variant 1) | – | – | 18.7 | – | 15.1 | 17.2 |
| UAGUGAGCGUGAGGAAUAUACAUGAGGAUCACCCAUGUUUGCUACUAUCUUGCUCGUCUUAUAACAACAAUUAACUG [mod-hagla-honey#50] (Eterna round: R97, puzzle: Sensor, turn-off variant 1) | 14.8 | 16.9 | – | – | – | – |
| GAUGAGCAUGUCAGGAUAUCCACUCUAAUAAAACAGGAGAAGGGACAUGAGGAUCACCCAUGUUCUAGACAUGA [Latealedi] (puzzle: Brourd's mod of Exclusion 4) | – | – | 13.1 | – | 14.5 | 14 |
| UUUAGUCGUGACAUGGGUGACAUGAGGAUCACCCAUGUUACAAGCUUGUUGCUCGUCUUAUAAUUAACCCAUGUCAC [LRO Sensor-off var1-16 mod of Stov1-13-A1 by Brourd] (Eterna round: R97, puzzle: Sensor, turn-off variant 1) | 13.5 | 17.2 | – | – | – | – |
| UUCUUACAUGAGGAUCACCCAUGUCAGGAUAUCUCCACACUGCGCUUGCGCAGUGUAUAGAGAAGGGACAGGCU [JL ViennaUCT Aner mod 5] (puzzle: Exclusion 1) | – | – | 40.7 | – | – | – |
| UUAAUUUAAGGGAUAGAUCAUUACAUGAGGAUCACCCAUGUUGAGGAUAUCAGCUCGAUUAGAGCUGAGAAGGCAACAAUAGGG [ExNG3/14-A1] (Eterna round: R96, puzzle: Exclusion NG 3) | 46 | 63.8 | – | 47.1 | – | – |
| UUAGCGCGAGGAUAUGCGGUUUGUGCUUUGGGCCCUGGCGUACAUGAGGAUCACCCAUGUAGAAGGCGUGUUGU [Apr-15 SS2-50] (puzzle: Exclusion 2) | – | – | 20.7 | – | – | – |
| AAUGUGUGAGGAUAUUAAUUGUAAUUGAAUAGAAUUAUGAUUGAGAAGGCACAUGAGGAUCACCCAUGUUCCAA [JR_Ex4_Sub082] (Eterna round: R97, puzzle: Exclusion 4) | 187 | 31.2 | – | – | – | – |

| Sequence | apparent KD of MS2 coat protein (input ligand: FMN 200 uM) [nM] | apparent KD of MS2 coat protein (input ligand: none) [nM] | apparent KD of MS2 coat protein [1] [nM] | apparent KD of MS2 coat protein [2] [nM] | apparent KD of MS2 coat protein [3] [nM] | apparent KD of MS2 coat protein [4] [nM] |
| --- | --- | --- | --- | --- | --- | --- |
| CAGGACAGAGGAUAUACAUAGAUACAGAUUCAUGUAGAACUACAUGAGGAUCACCCAUGUAGAAGGCUGACCUG [Fiskers Ex 2 - 4] (Eterna round: R96, puzzle: Exclusion 2) | 311 | 31.5 | – | 23.5 | – | – |
| GGUUGGCGAGGAUAUACAUGAGGAUCACCCAUGUGAGAGAAAAAAGUGAGGCAGAAAAGUAGAAGGCGCUGACG [salish99_ex3_r3_031] (puzzle: Exclusion 3) | – | – | 29.8 | – | 137 | 96.8 |
| UGGGUCACAGGAUAUACAUGAGGAUCACCCAUGUCGUAUUUCGUGGCGGAGAGCUCGAGUAGAAGGGUGCAUCC [Malarala] (puzzle: Exclusion 3) | – | – | 96.3 | – | – | – |
| CCAAGCUUUUUCAUUAACAACAUGAGGAUCACCCAUGUUUAAGCUAUUACUUUUGGGCUCUUUAGUGCUAGUCUUAU [JR_STOV1_Sub039] (Eterna round: R97, puzzle: Sensor, turn-off variant 1) | 18.6 | 19.4 | – | – | – | – |
| GAUUACACAAGCUUUAGGGACAUGAGGAUCACCCAUGUUCGUCUUAUUGAUCUAGGUACGCUGACGUACCUAGAUCU [JL-sv1-2.31 Brourd mod] (puzzle: Sensor v3, turn-off variant 1) | – | – | 84.9 | – | 14.5 | 13.2 |
| CCAGUGUAAGGAUAUGUAUACGUCUCUCUGGUAUGAGGGCGGCAGAAGGUACAUGAGGAUCACCCAUGUCAUAU [Eternabot (L2) Solution 94] (Eterna round: R97, puzzle: Exclusion 4) | 37.3 | 22.5 | – | – | – | – |
| GCAGUCAAAGUGAGGAUAUCUAGAGCGAUAGCUCUAGAGAAGGCACAUGAGGAUCACCCAUGUGAUCAGACUGC [BmEx4/7-A4'1] (Eterna round: R97, puzzle: Brourd's mod of Exclusion 4) | 605 | 257 | – | – | – | – |
| CCCACAAGCUUUUUGCUCGACAUGAGGAUCACCCAUGUUGAAUGGGUUAGAUGUGUGUGAAACAUAUAUAUUUACCU [-24.2, -47 kcal, A 27%] (Eterna round: R97, puzzle: Sensor, turn-off variant 1) | 25.5 | 26.4 | – | – | – | – |
| GUGUACAGAGGAUAUACACGAGUAGUUACGAAAGUAACUAUACAUGAGGAUCACCCAUGUAGAAGGCUGUACAC [Dot plot directed v2] (puzzle: Exclusion 2) | – | – | 14.5 | – | – | – |
| ACCCUGUGAGGAUAUUGUGAGCAGACACUUGAGUGCAAUCAUAAGAAGGUACAUGAGGAUCACCCAUGUGAAAC [Eternabot (L1) Solution 90] (Eterna round: R97, puzzle: Exclusion 4) | 30.4 | 38.7 | – | – | – | – |
| GAUCCUUCUGUUAGGAUAUGCUUUGGGCUUCCGCAGCAGAAGGAACAUGAGGAUCACCCAUGUCAAAUACCAUC [salish99_bmex4_r4_503] (Eterna round: R97, puzzle: Brourd's mod of Exclusion 4) | 23.1 | 23.1 | – | – | – | – |
| CACCCUGAUGACAAAUUACAUGAGGAUCACCCAUGUGCCUCGCAGGAUAUCCCAGCACGUCGCAAGGAGAAGGGCGACGCGCCA [Ralerira] (Eterna round: R96, puzzle: Exclusion NG 3) | 31.5 | 41.3 | – | 23.9 | – | – |
| ACAAGCUUUGUUGGGUGGUACAUGAGGAUCACCCAUGUUGCGCUCGUCUUGUGGGCCCGGGCCCGCGGCCCGGGCCC [-41.5, -69.6, A 12%] (Eterna round: R97, puzzle: Sensor, turn-off variant 1) | 545 | 663 | – | – | – | – |
| AGGUGACAUGAGGAUCACCCAUGUAAGGAUAUACGGUUAGUGGAGAGUUGGAGGAGAGGUAGAAGGUACGGAGC [JR_Exclu1_Sub060] (puzzle: Exclusion 1) | – | – | 174 | – | – | – |
| UGCUACAUGAGGAUCACCCAUGUAAUGUGGGAUUCGUUAGGACAGGAUAUGAUUGUAUUGUUUUUUCAGAAGGGUCAUUACUUU [JR_ExcNG3_Sub011] (Eterna round: R96, puzzle: Exclusion NG 3) | 74.4 | 52.9 | – | 34.6 | – | – |
| AUAAUGUGAGGAUAUCAGUCGACUAGCCUCGGCUAGUCGACUGAGAAGGUACAUGAGGAUCACCCAUGUGGUUC [E4/11-B2] (Eterna round: R97, puzzle: Exclusion 4) | 882 | 429 | – | – | – | – |
| CUGAACCCGGUAGGAUAUAUUGUGGGCAAGCAUGGAACAACAUGAGGAUCACCCAUGUAAUUUAGGUAGAAGGGCCAAAAGAUU [Excl-NG2-LRO08] (Eterna round: R96, puzzle: Exclusion NG 2) | 56.8 | 55.3 | – | 52.7 | – | – |
